The numbers were not newly measured in patent US20240401145A1, “METHOD FOR PREDICTING THE RESPONSE OF A PATIENT DIAGNOSED WITH CANCER TO TREATMENT AND/OR IMAGING WITH A COMPOUND TARGETING CCK2-R, AND COMPOUND FOR USE IN METHODS OF SELECTIVELY TREATING AND/OR IMAGING CANCER” (Paul Scherrer Institut, priority 2021, published 2024), which cites them from elsewhere.

Ends that are not written are not given here.

For series [1] the following is noted: gastrin analogues labeled with a radionuclide such as 111In; reported from WO 2015/067473 A1.
For series [2], the system named is transplanted CCKBR-expressing A431 cells. The note with it: biodistribution in animal models; reported from WO 2015/067473 A1.
In the next series the target is T1, CCK2-R (Homo sapiens, UniProt P32239).
T1 sequence (P32239 1-447): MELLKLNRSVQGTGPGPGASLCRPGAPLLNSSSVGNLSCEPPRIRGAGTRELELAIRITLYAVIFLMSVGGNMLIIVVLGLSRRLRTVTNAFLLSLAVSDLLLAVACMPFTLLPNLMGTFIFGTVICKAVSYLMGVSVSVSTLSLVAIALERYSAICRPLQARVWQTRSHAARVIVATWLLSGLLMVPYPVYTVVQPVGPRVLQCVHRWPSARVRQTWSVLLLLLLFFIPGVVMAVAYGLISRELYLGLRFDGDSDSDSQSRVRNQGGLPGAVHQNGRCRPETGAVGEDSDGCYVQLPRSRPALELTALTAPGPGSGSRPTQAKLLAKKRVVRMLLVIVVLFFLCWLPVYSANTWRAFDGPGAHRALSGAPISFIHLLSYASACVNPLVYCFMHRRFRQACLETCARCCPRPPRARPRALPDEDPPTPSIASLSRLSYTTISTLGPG
The note with it: known from prior art.

Consider “DOTA-(DGln)6-Ala-Tyr-Gly-Trp-Nle-Asp-Phe-NH2 [PP-F10N, reference compound]”, for which the “chemical stability (resistance to proteolysis and oxidation)” value in series [1] is “good”. Further, in series [2], the “accumulation in the kidneys” value is given as “low accumulation” and the “uptake in transplanted CCKBR-expressing A431 cells” value is reported as “good uptake”.
Regarding “DOTA-(DGlu)6-Ala-Tyr-Gly-Trp-Nle-Asp-Phe-NH2 [PP-F11N]”, the “chemical stability (resistance to proteolysis and oxidation)” value in series [1] is “good”. In series [2], the “accumulation in the kidneys” value is “low accumulation” and the “uptake in transplanted CCKBR-expressing A431 cells” value is given as “good uptake”.
Turning to “minigastrin: small peptide hormone known to bind CCK2-R with high affinity (WLEEEEEAYGWMDF; ends and bridges not checked; UniProt P01350 79-92, looked up)”, the “affinity of binding to CCK2-R” value in the series with CCK2-R was “high affinity”.
